Experimental data reported in US20220380463A1 (Adimab, published 2022).
Changes are numbered by the printed parent chain.

B1: SAD10320_P04_E10 (ADI-48657) (antibody, V domains shown)
VH: QVQLVQSGAEVKKPGASVKVSCKASGFNIKDYYMHWVRQAPGQRPEWMGWIDLENANTIYDAKFQGRVTITRDTSASTAYMELSSLRSEDTAVYYCARDAYGHDFYDVWGQGTLVTVSS
VL: DIVMTQSPDSLAVSLGERATINCKSSQSLLNARTGKNYLAWYQQKPGQPPKLLIYWASTRESGVPDRFSGSGSGTDFTLTISSLQAEDVAVYYCKQSYSRRTFGGGTKVEIK
notes: IgG; also called Ab106
B2: SAD10320_P04_F10 (ADI-57385) (antibody, V domains shown)
VH: B1 VH with R44T, P45L, E46D, H103R, D104N, F105H
VL: B1 VL with T34P, S99L, R100H
notes: IgG; also called Ab107
B3: SAD10320_P04_G10 (ADI-48658) (antibody, V domains shown)
VH: B1 VH with P45L
VL: B1 VL
notes: IgG; also called Ab108
B4: SAD10320_P04_A11 (ADI-57386) (antibody, V domains shown)
VH: B1 VH with P45L, E46Q, Y101R, G102H, H103R, D104Y
VL: B1 VL with R100H, R101G
notes: IgG; also called Ab109
B5: SAD10320_P04_D11 (ADI-57387) (antibody, V domains shown)
VH: B1 VH with P45L, E46Q, D104V
VL: B1 VL with S99H, R100H
notes: IgG; also called Ab110
B6: SAD10320_P04_E11 (ADI-57388) (antibody, V domains shown)
VH: B1 VH with P45L
VL: B1 VL with S99G, R100H
notes: IgG; also called Ab111
B7: SAD10320_P04_F11 (ADI-57389) (antibody, V domains shown)
VH: B1 VH with P45L, D104E
VL: B1 VL with S97G, Y98H
notes: IgG; also called Ab112
B8: SAD10320_P04_G11 (ADI-57390) (antibody, V domains shown)
VH: B1 VH with P45L, G102R, D104E
VL: B1 VL with S99Y, R100H
notes: IgG; also called Ab115
B9: SAD10320_P04_A12 (ADI-57391) (antibody, V domains shown)
VH: B1 VH with P45L, D104V
VL: B1 VL with S99H, R100H
notes: IgG; also called Ab117
B10: SAD10320_P04_D12 (ADI-57392) (antibody, V domains shown)
VH: B1 VH with P45L
VL: B1 VL with R100H
notes: IgG; also called Ab118
B11: SAD10320_P04_E12 (ADI-57393) (antibody, V domains shown)
VH: B1 VH with P45L, D104T
VL: B1 VL with S99H, R100V
notes: IgG; also called Ab119
B12: SAD10320_P04_F12 (ADI-57394) (antibody, V domains shown)
VH: B1 VH with P45L, W47R, D104E
VL: B1 VL
notes: IgG; also called Ab120
B13: SAD10319_P05_A01 (ADI-57395) (antibody, V domains shown)
VH: QVQLVQSGAEVKKPGASVKVSCKASGYTFTAYTMHWVRQAPGHRLEWMGWINPDTGATDYSQKFQGRVTITRDTSASTAYMELSSLRSEDTAVYYCARDAYHHYFYDVWGQGTLVTVSS
VL: B1 VL
notes: IgG; also called Ab121
B14: SAD10319_P05_A02 (ADI-57396) (antibody, V domains shown)
VH: B13 VH with T30A, A31S, T33D, H43Q, N52D, P53A, D54G, D59V, H102G, V108H
VL: B1 VL
notes: IgG; also called Ab122
B15: SAD10319_P05_A03 (ADI-57397) (antibody, V domains shown)
VH: QVQLVQSGAEVKKPGASVKVSCKASGYTFNDYAMHWVRQAPGQRLEWMGWIDAGTGNTYYSQKFQGRVTITRDTSASTAYMELSSLRSEDTAVYYCARDAHGHYFYDVWGQGTLVTVSS
VL: B1 VL
notes: IgG; also called Ab123
B16: SAD10319_P05_A05 (ADI-57398) (antibody, V domains shown)
VH: B13 VH with H43Q
VL: B1 VL
notes: IgG; also called Ab124
B17: SAD10319_P05_B02 (ADI-57399) (antibody, V domains shown)
VH: B13 VH with A31S, T33N, H43P, R44S, W50S, N52D, P53A, D54G
VL: B1 VL
notes: IgG; also called Ab126
B18: SAD10319_P05_B03 (ADI-57400) (antibody, V domains shown)
VH: B15 VH with N30E, D31S, A33V, D52H, A53S, Y59D, H101Y, V108H
VL: B1 VL
notes: IgG; also called Ab127
B19: SAD10319_P05_B04 (ADI-57401) (antibody, V domains shown)
VH: B13 VH with A31S, Y32A, T33V, H43Q, W50D, P53A, D54G, H102G, H103R
VL: B1 VL
notes: IgG; also called Ab128
B20: SAD10319_P05_B05 (ADI-57402) (antibody, V domains shown)
VH: B15 VH with N30V, Y59D
VL: B1 VL
notes: IgG; also called Ab129
B21: SAD10319_P05_C01 (ADI-57403) (antibody, V domains shown)
VH: B15 VH with N30T, Y32D, R98H, H101Y
VL: B1 VL
notes: IgG; also called Ab130
B22: SAD10319_P05_C03 (ADI-57404) (antibody, V domains shown)
VH: B13 VH with A31S, T33N, H43Q, W50S, N52D, P53A, D54G
VL: B1 VL
notes: IgG; also called Ab131
B23: SAD10319_P05_C05 (ADI-57405) (antibody, V domains shown)
VH: B13 VH with A31S, T33N, H43P, N52D, P53A, D54G, D59H
VL: B1 VL
notes: IgG; also called Ab132
B24: SAD10319_P05_D01 (ADI-57406) (antibody, V domains shown)
VH: B15 VH with N30T, D31E, A33D, R44T, N57A, Y59V, H101Y, H103R, V108H
VL: B1 VL
notes: IgG; also called Ab133
B25: SAD10319_P05_D02 (ADI-57407) (antibody, V domains shown)
VH: B15 VH with N30D, D31S, A33T, Q43P, W50S, D52N, Y59D, A100H, H101Y
VL: B1 VL
notes: IgG; also called Ab134
B26: SAD10319_P05_D03 (ADI-57408) (antibody, V domains shown)
VH: B15 VH with N30T, Y32D, Q43H, R98H, H101Y
VL: B1 VL
notes: IgG; also called Ab135
B27: SAD10319_P05_D04 (ADI-57409) (antibody, V domains shown)
VH: B13 VH with A31S, Y32D, T33Y, H43Q, P53A, D54G, R98H, H102G, H103R, F105H
VL: B1 VL
notes: IgG; also called Ab137
B28: SAD10319_P05_D05 (ADI-57410) (antibody, V domains shown)
VH: B15 VH with N30A, Q43H, W50D, D52I, N57A, Y59K, A100H, H101Y
VL: B1 VL
notes: IgG; also called Ab138
B29: SAD10319_P05_E04 (ADI-57411) (antibody, V domains shown)
VH: B13 VH with A31G, T33E, H43Q, D54S, A57N, D59V, A100H, H102G
VL: B1 VL
notes: IgG; also called Ab139
B30: SAD10319_P05_F01 (ADI-57412) (antibody, V domains shown)
VH: B15 VH with N30T, Y32D, R44S, R98H, H101Y
VL: B1 VL
notes: IgG; also called Ab140
B31: SAD10319_P05_G01 (ADI-57413) (antibody, V domains shown)
VH: B15 VH with D31N, R44S, Y59D, G102H, H103R
VL: B1 VL
B32: SAD10319_P05_G02 (ADI-57414) (antibody, V domains shown)
VH: B15 VH with N30T, D31T, A53P, G54V, Y59K, A100H, H101Y, H103R, V108H
VL: B1 VL
notes: IgG; also called Ab142
B33: SAD10319_P05_G03 (ADI-57415) (antibody, V domains shown)
VH: B13 VH with T30H, A31S, T33N, H102G, H103R
VL: B1 VL
notes: IgG; also called Ab143

Target: T1, Cynomolgus CD3εδ Fc heterodimer (Cy CD3ε Fc / CD3δ Fc-HIS) (cynomolgus, UniProt Q95LI8 22-100)
T1 chain 1: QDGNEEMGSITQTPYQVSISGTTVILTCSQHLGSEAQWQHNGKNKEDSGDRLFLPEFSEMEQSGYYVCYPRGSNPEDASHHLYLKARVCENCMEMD
T1 chain 2: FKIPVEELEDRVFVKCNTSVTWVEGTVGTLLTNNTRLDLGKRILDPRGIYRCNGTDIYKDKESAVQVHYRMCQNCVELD
Test: BLI (Octet), IgG on AHC sensor, pH 6.0
A koff of 0.00258 s⁻¹ was found for B1 in this work. A koff of 0.00239 s⁻¹ was found for B2 in this work. A koff of 0.0189 s⁻¹ was found for B3 in this work. A koff of 0.00741 s⁻¹ was found for B4 in this work. A koff of 0.00338 s⁻¹ was found for B5 in this work. A koff of 0.00297 s⁻¹ was found for B6 in this work. A koff of 0.00192 s⁻¹ was found for B7 in this work. A koff of 0.00276 s⁻¹ was found for B8 in this work. A koff of 0.0168 s⁻¹ was found for B9 in this work. A koff of 0.00259 s⁻¹ was found for B10 in this work. A koff of 0.0108 s⁻¹ was found for B11 in this work. A koff of 0.00259 s⁻¹ was found for B12 in this work. A koff of 0.0251 s⁻¹ was found for B13 in this work. A koff of 0.0246 s⁻¹ was found for B14 in this work. A koff of 0.0127 s⁻¹ was found for B15 in this work. A koff of 0.0118 s⁻¹ was found for B16 in this work. A koff of 0.00411 s⁻¹ was found for B17 in this work. A koff of 0.0346 s⁻¹ was found for B18 in this work. A koff of 0.00258 s⁻¹ was found for B19 in this work. A koff of 0.00654 s⁻¹ was found for B20 in this work. A koff of 0.013 s⁻¹ was found for B21 in this work. A koff of 0.00327 s⁻¹ was found for B22 in this work. A koff of 0.00821 s⁻¹ was found for B23 in this work. A koff of 0.00929 s⁻¹ was found for B24 in this work. A koff of 0.0241 s⁻¹ was found for B25 in this work. A koff of 0.0233 s⁻¹ was found for B26 in this work. A koff of 0.022 s⁻¹ was found for B27 in this work. A koff of 0.0158 s⁻¹ was found for B28 in this work. A koff of 0.00373 s⁻¹ was found for B29 in this work. A koff of 0.0214 s⁻¹ was found for B30 in this work. A koff of 0.0236 s⁻¹ was found for B31 in this work. A koff of 0.0156 s⁻¹ was found for B32 in this work. A koff of 0.0167 s⁻¹ was found for B33 in this work.
